In test [1] the target is T1, human MC4 receptor (human, UniProt P32245 1-332).
T1 construct: whole, on cells; It was tested as crude membranes prepared from cells expressing the receptor; also called hMC-4R

Test [2] addresses T2, human MC5 receptor (human, UniProt P33032 1-325).
T2 construct: whole, on cells; It was tested as crude membranes prepared from cells expressing the receptor; also called hMC-5R

Test [3] addresses rhesus melanocortin-4 receptor protein (rhesus monkey (Macaca mulatta)).
In test [4] the target is T3, human MC3 receptor (human, UniProt P41968 1-323).
T3 construct: whole, on cells; It was tested as crude membranes prepared from cells expressing the receptor; also called hMC-3R
T3 sequence (P41968 whole entry): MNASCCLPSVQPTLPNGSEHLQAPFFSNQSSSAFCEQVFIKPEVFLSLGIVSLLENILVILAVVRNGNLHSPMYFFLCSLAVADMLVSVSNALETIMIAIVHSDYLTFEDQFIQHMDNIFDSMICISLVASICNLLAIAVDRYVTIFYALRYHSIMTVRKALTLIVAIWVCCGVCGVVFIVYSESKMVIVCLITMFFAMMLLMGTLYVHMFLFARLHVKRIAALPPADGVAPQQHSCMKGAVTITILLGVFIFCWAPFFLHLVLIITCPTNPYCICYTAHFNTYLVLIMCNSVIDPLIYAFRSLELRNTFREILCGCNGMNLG

Test [5] deals with T4, rhesus melanocortin-4 receptor protein (rhesus monkey (Macaca mulatta), UniProt Q8HXX3 1-332 (cynomolgus entry)).
T4 construct: This is the full-length 332 amino acid receptor encoded by pVE3099; also called rhMC-4R; rhesus MC-4R
T4 sequence (Q8HXX3 whole entry R167G): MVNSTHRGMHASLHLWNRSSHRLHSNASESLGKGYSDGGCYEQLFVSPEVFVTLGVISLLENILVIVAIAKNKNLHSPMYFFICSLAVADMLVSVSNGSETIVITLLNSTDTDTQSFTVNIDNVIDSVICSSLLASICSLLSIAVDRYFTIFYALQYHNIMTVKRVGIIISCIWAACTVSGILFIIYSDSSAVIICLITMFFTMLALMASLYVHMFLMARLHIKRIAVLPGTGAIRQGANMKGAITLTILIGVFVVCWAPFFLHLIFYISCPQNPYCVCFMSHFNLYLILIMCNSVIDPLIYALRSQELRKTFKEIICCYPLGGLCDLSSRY
Method: (§1) Reactions were incubated for 1 hour without shaking and then filtered through 96-well filter plates (Packard corp.). Filters were washed three times with TNE buffer (50 mM Tris pH 7.4, 5 mM EDTA, 150 mM NaCl), dried and counted using Microscint-20 in a Topcount scintillation counter (Packard).
(§2) Membranes prepared from rhesus MC-4R transfected cells were evaluated alongside membranes prepared from human MC-4R, MC-4R, and MC-5R expressing cells.

Test [6] deals with T2, human MC5 receptor. This is another data set of the same source.
Method: as §1, §2
Test [7] has as its target T3, human MC3 receptor. This is another data set of the same source.
Method: as §1, §2
For test [8], the target named is T1, human MC4 receptor. The source holds these as a separate data set.
Method: as §1, §2

Read-outs that look alike come from different tables or passages of the source. Where no end group is shown, it is not given here.

T1 sequence (P32245 whole entry): as the sequence (Q8HXX3 whole entry R167G) above, with A11T, H21Y, T114A, V296I counted along it
T2 sequence (P33032 whole entry): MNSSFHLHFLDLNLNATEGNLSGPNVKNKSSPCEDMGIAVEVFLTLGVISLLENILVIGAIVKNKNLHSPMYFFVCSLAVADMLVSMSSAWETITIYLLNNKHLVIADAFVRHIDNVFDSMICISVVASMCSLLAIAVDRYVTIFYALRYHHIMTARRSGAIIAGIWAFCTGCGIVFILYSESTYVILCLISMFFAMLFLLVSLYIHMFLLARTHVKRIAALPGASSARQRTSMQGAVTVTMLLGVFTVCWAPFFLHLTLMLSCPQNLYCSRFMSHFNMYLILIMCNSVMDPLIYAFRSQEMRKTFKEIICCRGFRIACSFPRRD
Chain of rhesus melanocortin-4 receptor protein (rhesus monkey (Macaca mulatta)) (Q8HXX3 whole entry R167G): as the sequence (Q8HXX3 whole entry R167G) above

On to MTII (peptide), for which the IC50 worked out at 100 pM in test [1], 900 pM in test [2] and 100 pM in test [3].

Take SHU-9119 (peptide): the IC50 was 100 pM in test [1], 100 pM in test [2], 300 pM in test [4] and 200 pM in test [3].

On to NDP-alpha-MSH (peptide), for which the IC50 in test [1] is 600 pM; in test [2], 400 pM; in test [4], 600 pM; in test [3], 1300 pM.

B1: Gamma MSH (peptide, UniProt P01189 77-87, looked up)
peptide: YVMGHFRWDRF
modifications: ends and bridges not checked
notes: domain: gamma MSH; The peptide is only a part of it; also called γ-MSH
As to B1, in test [5], half-maximal inhibition (IC50) required 211000 pM.

B2: Beta MSH (peptide, UniProt P01189 217-234, looked up)
peptide: DEGPYRMEHFRWGSPPKD
notes: domain: beta MSH; The peptide is only a part of it; also called β-MSH
As for B2, the results for the half-maximal inhibitory concentration (IC50) in test [5], in test [6] and in test [7] were 23000 pM, 166000 pM and 23000 pM, respectively.

B3: ACTH1-39 (peptide, UniProt P01189 138-176, looked up)
peptide: SYSMEHFRWGKPVGKKRRPVKVYPNGAEDESAEAFPLEF
notes: domain: ACTH1-39; The numbers 1-39 count on the ACTH peptide, not on the precursor
Take B3: the IC50 in test [8] came out at 6000 pM; in test [5], 1300 pM; in test [6] it was 400 pM; in test [7] it was 6000 pM.

B4: Alpha MSH (peptide, UniProt P01189 138-150, looked up)
peptide: SYSMEHFRWGKPV
notes: domain: alpha MSH; The peptide is only a part of it; also called α-MSH; α-melanocyte stimulating hormone
Take B4: the IC50 in test [5] stood at 27000 pM.
